{"source": "patent US7645871B2", "about": "“Tumor inhibition by modulating sprouty expression of activity” (Michigan State University, priority 2005, dated 2010)", "molecules": {"B1": {"name": "Spry2-shRNA-2: Sprouty2-specific shRNA construct targeting position 399 of the Spry2 coding region; PH3MT-2A3 and PH3MT-2B9 cell strains were derived with it (nucleic acid)", "chain": "GATCCCCGAGACTGCTAGGATCATCCTTCAAGAGAGGAGTGATCCTAGCAGCTCTTTTTGGAAA"}, "B2": {"name": "Spry2-shRNA-5: Sprouty2-specific shRNA construct targeting position 492 of the Spry2 coding region; PH3MT-5A3 cell strain was derived with it (nucleic acid)", "chain": "GATCCCCGCCACTGAGCAAGGAAGATTTCAAGAGAATCTTCCTTGCTCAGTGGCTTTTTGGAAA"}}, "key": {"PH3MT cells [1]": {"test_system": "PH3MT cells", "assay": "AG1478 inhibitor study, cell growth in 0.1% serum", "type": "cell-based, human", "procedure": "For AG1478 inhibitor studies, cells were plated at a density of 5,000 cells per 60 mm-diameter dish in medium containing 0.1% serum, and were allowed to grow in the presence or absence of AG1478 at a concentration of 6 μM. Cell growth was monitored by measuring the number of cells every two days. Each experimental repetition included at least two replicates for each cell strain analyzed.\nThe activation of Ras oncogenes enables cellular growth in the absence of exogenous growth factors (Medema et al. (1993) Crit. Rev. Oncog. 4; Shields et al. (2000) Trends Cell. Biol. 10: 147-154). To determine if the activity of EGFR is necessary for the growth factor independence of H-Ras-transformed cells, measurements were made to determine the ability of PH3MT cells to grow in the presence of the AG1478 inhibitor, a specific inhibitor of EGFR tyrosine kinase activity (Levitzki et al. (1995) Science 267:1782-1788)."}, "[2]": {"test_system": "HRas-transformed cells (PH3MT)", "assay": "UV-induced apoptosis assay (AnnexinV-FITC, flow cytometry)", "type": "cell-based, human", "settings": "Ras-transformed cells treated with AG1478", "procedure": "Apoptosis was detected by staining the cells with AnnexinV-FITC (BD Biosciences, San Jose, Calif.) according to manufacturer's recommendations. Briefly, cells were plated at a density of 2×10^5 cells/60 mm-dish. 16 hours after plating, the cells were irradiated with UV at a dose of 30-60 J/m^2 and incubated at 37° C. under normal culture conditions for varying time periods. Subsequently, the cells were collected, washed twice with AnnexinV binding buffer and incubated with AnnexinV-FITC at room temperature for 15 mins. The cells were also stained with propidium iodide (PI) to distinguish between live and dead cells. AnnexinV-FITC positive cells were determined by flow cytometry under standard conditions. Cells that stained positively for AnnexinV were considered apoptotic, while cells that were positive for both annexinV and PI were not considered apoptotic. All experiments were repeated at least three times. Ras protects NIH3T3 fibroblasts from apoptosis induced by DNA-damage (Franke et al. (2003) Oncogene 22:8983-98). Experiments were conducted to determine whether this effect was produced in an H-Ras-transformed cell strain (PH3MT), which has a higher expression of Spry2 compared to its parental cell strain (MSU-1.1) (FIG. 10A). In these experiments, both MSU-1.1 and PH3MT cells were plated at a density of 2×10^5 cells per dish and allowed to grow overnight. […]"}, "ERK": {"test_system": "ERK", "assay": "EGF-induced activation of ERK (pERK Western blot)", "type": "cell-based, human", "settings": "serum starved, EGF 100 ng/ml; vs scrambled RNAi strain PH3MT-SC", "procedure": "Whole cell lysates were prepared as described in Lou et al. (2005) Cancer Res. 65:1007-1017. The protein content was quantified with Coomassie protein reagent from Pierce (Rockford, Ill.). Whole cell lysate (50 μg) was separated by SDS-PAGE. The protein was transferred to polyvinylidene fluoride membrane (Millipore, Billerica, Mass.), and immunoblotting was carried out using standard techniques. The signal was detected with the SuperSignal® reagent (Pierce). Antibodies against EGFR, ERK, pERK, c-Cbl, and H-Ras were purchased from Santa Cruz Biotechnology, Inc. (Santa Cruz, Calif.); Sprouty2 from Calbiochem (San Diego, Calif.); Pan-Ras from Cytoskeleton, Inc. (Denver, Colo.) and Ku80 from Serotec (Raleigh, N.C.). The Ku80 protein expression was used as a loading control.\nTo determine if the expression of Sprouty2 in PH3MT cells was associated with an increase in the activation of the RAS/MAPK cascade, EGF-induced activation of ERK was examined by Western blotting with a phosphorylation-specific antibody."}, "PH3MT cells [3]": {"test_system": "PH3MT cells", "assay": "Tumorigenicity assay in athymic mice", "type": "in vivo", "settings": "one million cells per site s.c., at least 6 months", "procedure": "Cells were assayed for their ability to form tumors in athymic mice as described in Lou et al. (2005) Cancer Res. 65:1007-1017. The mice were examined weekly for tumor growth, and the tumors were removed when they reached 1 cm in diameter. In the absence of tumor formation six months after the injection, the mice were sacrificed.\nWhen these same cell strains were compared for their ability to form tumors in athymic mice (Table 1), the control cell strains (PH3MT-VC and PH3MT-SC) formed 0.5 cm^3 tumors in 21 days (12/12 tumors formed per cell strain)."}, "HRas/c-Cbl": {"test_system": "HRas/c-Cbl", "assay": "Co-immunoprecipitation of c-Cbl with HRas", "type": "cell-based, human", "settings": "PH3MT-2A3 vs control cells, anti-HRas immunoprecipitation", "procedure": "Generally, in experiments employing immunoprecipitation, whole cell lysates (250 μg) were precleared with an appropriate IgG antibody for 30 mins., then incubated with an antibody specific to HRas for 2 hrs., followed by incubation with protein-G for 1 hr. to overnight at 4° C. When an Hras-agarose conjugate was used (Ras-cCbl/CIN85), the lysates were incubated with the agarose conjugate for 3 hrs. to overnight. The immunoprecipitated fraction was washed several times with lysis buffer and assayed by Western blotting. Experiments were generally conducted in replicate, e.g., experiments were repeated 3 to 4 times for those examining Ras-Spry2 and Ras-c-Cbl interactions, and two times for those examining the Ras-CIN85 interaction."}, "Rac1": {"test_system": "Rac1", "assay": "Rac1 activation assay (PAK-CRIB pull-down)", "type": "cell-based, human", "settings": "PH3MT-SC (endogenous Spry2) vs PH3MT-2A3", "procedure": "Pull-down assays were performed using whole cell lysates (2 mg). The lysates were pulled down with PAK-Cdc42/Rac1 interacting region (CRIB)-conjugated beads from Cytoskeleton (Denver, Colo.) using methods provided by the manufacturer. […] These experiments were repeated 3 times in H-Ras-transformed cells and twice in immortalized fibroblasts.\nTo determine whether Spry2 plays a role in the activation of Rac1, a Rac1 activation assay was carried out to determine the level of activated Rac1 in control HRas-transformed cells (PH3MT-SC) and in HRas-transformed cells with down regulated Spry2 (PH3MT-2A3)."}, "PH3MT cells [4]": {"test_system": "PH3MT cells", "assay": "Stress fiber staining (phalloidin)", "type": "cell-based, human", "settings": "PH3MT-2A3 vs PH3MT-SC", "procedure": "Stress fibers were detected with Alexa-fluor 488 conjugated phalloidin stain from Invitrogen (Carlsbad, Calif.), which was used according to the manufacturer's instructions. Briefly, cells at log phase were fixed in 10% normal buffered formalin solution for 10 mins. The fixed cells were washed twice in phosphate buffered saline (PBS), and then treated with 0.1 Triton X-100 in PBS for 3-5 mins. at room temperature. Subsequently, the cells were incubated with blocking solution (1% BSA in PBS) for 20 mins. at room temperature. Finally, the cells were incubated with phalloidin stain for 30 mins. and analyzed by fluorescent microscopy.\nOne function of Rac1 is to inhibit stress fiber formation (Burridge et al. (2004) Cell 116(2): 167-179). […] This is consistent with the lower level of Rac1 activation in these cells (FIG. 12B). Accordingly, one assay that can be used to analyze the effects of a compound that affects Spry2 expression or activity is to assay stress fiber formation in the presence and absence or a compound in a cell that can express Rac1."}, "MDM2": {"test_system": "MDM2", "assay": "MDM2 level and Ser166 phosphorylation, Western blot", "type": "cell-based, human", "settings": "PH3MT-2A3 vs PH3MT-SC", "procedure": "(§1) Whole cell lysates were prepared as described in Lou et al. ((2005) Cancer Res. 65:1007-1017). Protein concentration was quantified with Coomasie protein reagent from Pierce (Rockford, Ill.). Whole cell lysates (50 μg) were separated by SDS-PAGE. The electrophoresed proteins were transferred to a polyvinylidene fluoride membrane (Millipore, Billerca, Mass.), and immunoblotted using standard techniques. Antibodies against pp 85, p85, c-Cbl, Mdm2, p53 and H-Ras were purchased form Santa Cruz (Santa Cruz, Calif.); Spry2 from Calbiochem (San Diego, Calif.); pAkt and Akt from Cell Signaling (Danver, Mass.) and Ku80 from Serotec (Raleigh, N.C.). Ku80 protein was used as a loading control. Label signals were detected with the SuperSignal reagent (Pierce, Rockford, Ill.).\n(§2) The MDM2/p53 pathway plays a critical role in UV-induced apoptosis (Lakin et al. (1999) Oncogene 18(53):7644-7655). Akt phosphorylates MDM2 on serine residue 166, resulting in the stabilization of MDM2 (Ogawara et al. (2002) J. Biol. Chem., 277(24):21843-21850). This enhances the ubiquitination of p53 by MDM2, which is followed by degradation of the p53. […] To test this proposal, the amount of MDM2 phosphorylated at Ser166 was determined in a cell strain with down regulated Spry2 (PH3MT-2A3) and in a control cell strain (PH3MT-SC). […]"}, "p53": {"test_system": "p53", "assay": "p53 level, Western blot", "type": "cell-based, human", "settings": "PH3MT-2A3 vs PH3MT-SC", "procedure": "as §1, §2"}}}
{"molecule": "COc1cc2ncnc(Nc3cccc(Cl)c3)c2cc1OC", "note": "[AG1478]", "values": [{"measurement": "ability of cells to grow in medium with reduced serum", "setting": "PH3MT cells [1]; PH3MT cells, 0.1% serum, AG1478 6 μM", "result": "decrease in the ability of H-Ras-transformed cells to grow in medium with reduced serum"}, {"measurement": "decrease in growth compared with effect on MSU-1.1 cells", "setting": "PH3MT cells [1]; PH3MT vs MSU-1.1, AG1478 6 μM, p<0.001", "result": "significantly greater than the corresponding effect of the same inhibitor on the MSU-1.1 cells"}, {"measurement": "number of cells undergoing apoptosis in response to UV radiation", "setting": "[2]", "result": "increased the number of Ras-transformed cells undergoing apoptosis"}]}
{"molecule": "B1", "values": [{"measurement": "EGF-induced ERK activation", "setting": "ERK", "result": "decreased levels of ERK activation"}, {"measurement": "Tumor incidence (ratio of tumors formed to sites injected)", "setting": "PH3MT cells [3]; cell strain PH3MT-2A3 (derived with Spry2-shRNA-2)", "result": "0/12"}, {"measurement": "Tumor incidence (ratio of tumors formed to sites injected)", "setting": "PH3MT cells [3]; cell strain PH3MT-2B9 (derived with Spry2-shRNA-2)", "result": "0/12"}, {"measurement": "binding of endogenous c-Cbl to HRas", "setting": "HRas/c-Cbl", "result": "abolished"}, {"measurement": "level of active Rac1", "setting": "Rac1", "result": "significantly higher level of active Rac1, compared to cell strain with down-regulated Spry2 expression"}, {"measurement": "stress fiber formation", "setting": "PH3MT cells [4]", "result": "more pronounced stress fibers"}, {"measurement": "level of MDM2 following UV treatment", "setting": "MDM2", "result": "decrease in the level of MDM2 following UV treatment"}, {"measurement": "level of p53 following UV treatment", "setting": "p53", "result": "higher"}]}
{"molecule": "B2", "values": [{"measurement": "Tumor incidence (ratio of tumors formed to sites injected)", "setting": "PH3MT cells [3]; cell strain PH3MT-5A3 (derived with Spry2-shRNA-5)", "result": "0/12"}]}
